Reference: EP1950300A2 (Genentech, Inc., dated 2008)

Columns and labels:
VEGF(8-109) [1] = biological target: T1, VEGF(8-109) (UniProt P15692 214-315); assay: SPR (BIACORE-2000), ratio against Y0192
T1 construct: range 8-109; Covalently coupled to the BIACORE chip
T1 sequence (looked up): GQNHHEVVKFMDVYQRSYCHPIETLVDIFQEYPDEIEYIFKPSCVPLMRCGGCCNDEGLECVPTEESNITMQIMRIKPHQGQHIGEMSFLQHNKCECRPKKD

VEGF(8-109) [2] = biological target: T1, VEGF(8-109); assay: SPR (BIACORE-2000), VEGF(8-109) coupled to the chip, Fab injected, 25 C
VEGF(8-109) [3] = biological target: T1, VEGF(8-109); assay: SPR (BIACORE-2000), Kd calculated as koff/kon

B1: Y0241-6 (Fab, V domains shown)
VH: EVQLVESGGGLVQPGGSLRLSCAASGYDYTNYGMNWVRQAPGKGLEWVGWINTYTGEPTYAADFKRRFTFSLDTSKSTAYLQMNSLRAEDTAVYYCAKYPHYYGSSHWYFDVWGQGTL
VL: DIQLTQSPSSLSASVGDRVTITCRANEQLSNYLNWYQQKPGKAPKVLIYFTSSLHSGVPSRFSGSGSGTDFTLTISSLQPEDFATYYCQQYSTVPWTFGQGTKVEIKR
notes: Clone from library YC-86 built on pY0192, expressed as Fab
Kd(wt)/Kd(mut) (VEGF(8-109) [1]): 1.1 fold
koff (VEGF(8-109) [2]): 0.000129 s⁻¹
kon (VEGF(8-109) [2]): 47000 M⁻¹ s⁻¹
Kd (VEGF(8-109) [3]): 2.7 nM

B2: Y0239-19 (Fab, V domains shown)
VH: EVQLVESGGGLVQPGGSLRLSCAASGYTFTNYGMNWVRQAPGKGLEWVGWINTYTGEPTYAADFKRRFTFSLDTSKSTAYLQMNSLRAEDTAVYYCAKYPHYYVNERKSHWYFDVWGQGTL
VL: DIQLTQSPSSLSASVGDRVTITCRANEQLSNYLNWYQQKPGKAPKVLIYFTSSLHSGVPSRFSGSGSGTDFTLTISSLQPEDFATYYCQQYSTVPWTFGQGTKVEIKR
notes: Expressed as Fab; also called insertion variant Y0239-19; VNERK motif variant
Kd(wt)/Kd(mut) (VEGF(8-109) [1]): 9.7 fold

B3: Y0239-8 (Fab, V domains shown)
VH: EVQLVESGGGLVQPGGSLRLSCAASGYTFTNYGMNWVRQAPGKGLEWVGWINTYTGEPTYAADFKRRFTFSLDTSKSTAYLQMNSLRAEDTAVYYCAKYPHYYLRDGRSSHWYFDVWGQGTL
VL: DIQLTQSPSSLSASVGDRVTITCRANEQLSNYLNWYQQKPGKAPKVLIYFTSSLHSGVPSRFSGSGSGTDFTLTISSLQPEDFATYYCQQYSTVPWTFGQGTKVEIKR
notes: Clone from library YC-95 (G104 replaced by a random peptide) on pY0192; Expressed as Fab; The limits of the flanking pieces are my reading
Kd(wt)/Kd(mut) (VEGF(8-109) [1]): 5.8 fold

B4: Y0239-9 (Fab, V domains shown)
VH: EVQLVESGGGLVQPGGSLRLSCAASGYTFTNYGMNWVRQAPGKGLEWVGWINTYTGEPTYAADFKRRFTFSLDTSKSTAYLQMNSLRAEDTAVYYCAKYPHYYLGESSHWYFDVWGQGTL
VL: DIQLTQSPSSLSASVGDRVTITCRANEQLSNYLNWYQQKPGKAPKVLIYFTSSLHSGVPSRFSGSGSGTDFTLTISSLQPEDFATYYCQQYSTVPWTFGQGTKVEIKR
notes: Clone from library YC-95 on pY0192; Expressed as Fab; The limits of the flanking pieces are my reading
Kd(wt)/Kd(mut) (VEGF(8-109) [1]): 6 fold

B5: Y0261-6 (Fab, V domains shown)
VH: EVQLVESGGGLVQPGGSLRLSCAASGYTFTNYGMNWVRQAPGKGLEWVGWINTYTGEPTYAADFKRRFTFSLDTSKSTAYLQMNSLRAEDTAVYYCAKYPHYYLKDKKSHWYFDVWGQGTL
VL: DIQLTQSPSSLSASVGDRVTITCRANEQLSNYLNWYQQKPGKAPKVLIYFTSSLHSGVPSRFSGSGSGTDFTLTISSLQPEDFATYYCQQYSTVPWTFGQGTKVEIKR
notes: Clone from library YC-98 on pY0192; Expressed as Fab; The limits of the flanking pieces are my reading
Kd(wt)/Kd(mut) (VEGF(8-109) [1]): 5 fold

B6: Y0240-1 (Fab, V domains shown)
VH: EVQLVESGGGLVQPGGSLRLSCAASGYTFTNYGMNWVRQAPGKGLEWVGWINTYTGEPTYAADFKRRFTFSLDTSKSTAYLQMNSLRAEDTAVYYCAKYPHYYLTDHKSHWYFDVWGQGTL
VL: DIQLTQSPSSLSASVGDRVTITCRANEQLSNYLNWYQQKPGKAPKVLIYFTSSLHSGVPSRFSGSGSGTDFTLTISSLQPEDFATYYCQQYSTVPWTFGQGTKVEIKR
notes: Clone from library YC-98 (G104 and S105 replaced by a random peptide) on pY0192; Expressed as Fab; The limits of the flanking pieces are my reading
Kd(wt)/Kd(mut) (VEGF(8-109) [1]): 5.8 fold

B7: Y0313-2 (Fab, V domains shown)
VH: EVQLVESGGGLVQPGGSLRLSCAASGYDFTHYGMNWVRQAPGKGLEWVGWINTYTGEPTYAADFKRRFTFSLDTSKSTAYLQMNSLRAEDTAVYYCAKYPHYYVNERKSHWYFDVWGQGTL
VL: DIQLTQSPSSLSASVGDRVTITCRANEQLSNYLNWYQQKPGKAPKVLIYFTSSLHSGVPSRFSGSGSGTDFTLTISSLQPEDFATYYCQQYSTVPWTFGQGTKVEIKR
notes: Combines the CDR H3 insertion of Y0239-19 with T28D/N31H; Prepared as Fab; also called CDR combination variant Y0313-2; Insert-Fab Y0313-2
Kd(wt)/Kd(mut) (VEGF(8-109) [1]): 8 fold

B8: Y0242-1 (Fab, V domains shown)
VH: EVQLVESGGGLVQPGGSLRLSCAASGYTFTNYGMNWVRQAPGKGLEWVGWINTWTGEPTYAADFKRRFTFSLDTSKSTAYLQMNSLRAEDTAVYYCAKYPHYYGSSHWYFDVWGQGTL
VL: DIQLTQSPSSLSASVGDRVTITCRANEQLSNYLNWYQQKPGKAPKVLIYFTSSLHSGVPSRFSGSGSGTDFTLTISSLQPEDFATYYCQQYSTVPWTFGQGTKVEIKR
notes: Clone from library YC-90; Expressed as Fab
Kd(wt)/Kd(mut) (VEGF(8-109) [1]): 1.6 fold

B9: Y0241-7 (Fab, V domains shown)
VH: EVQLVESGGGLVQPGGSLRLSCAASGYDWTNYGMNWVRQAPGKGLEWVGWINTYTGEPTYAADFKRRFTFSLDTSKSTAYLQMNSLRAEDTAVYYCAKYPHYYGSSHWYFDVWGQGTL
VL: DIQLTQSPSSLSASVGDRVTITCRANEQLSNYLNWYQQKPGKAPKVLIYFTSSLHSGVPSRFSGSGSGTDFTLTISSLQPEDFATYYCQQYSTVPWTFGQGTKVEIKR
notes: Clone from library YC-86 built on pY0192, expressed as Fab; This is not written as a substitution
Kd(wt)/Kd(mut) (VEGF(8-109) [1]): 1 fold
koff (VEGF(8-109) [2]): 0.000128 s⁻¹
kon (VEGF(8-109) [2]): 46000 M⁻¹ s⁻¹
Kd (VEGF(8-109) [3]): 3 nM

B10: Y0239-12 (Fab, V domains shown)
VH: EVQLVESGGGLVQPGGSLRLSCAASGYTFTNYGMNWVRQAPGKGLEWVGWINTYTGEPTYAADFKRRFTFSLDTSKSTAYLQMNSLRAEDTAVYYCAKYPHYYAHEKKSHWYFDVWGQGTL
VL: DIQLTQSPSSLSASVGDRVTITCRANEQLSNYLNWYQQKPGKAPKVLIYFTSSLHSGVPSRFSGSGSGTDFTLTISSLQPEDFATYYCQQYSTVPWTFGQGTKVEIKR
notes: as for B5
Kd(wt)/Kd(mut) (VEGF(8-109) [1]): 4.8 fold

B11: Y0239-2 (Fab, V domains shown)
VH: EVQLVESGGGLVQPGGSLRLSCAASGYTFTNYGMNWVRQAPGKGLEWVGWINTYTGEPTYAADFKRRFTFSLDTSKSTAYLQMNSLRAEDTAVYYCAKYPHYYKNDKSSHWYFDVWGQGTL
VL: DIQLTQSPSSLSASVGDRVTITCRANEQLSNYLNWYQQKPGKAPKVLIYFTSSLHSGVPSRFSGSGSGTDFTLTISSLQPEDFATYYCQQYSTVPWTFGQGTKVEIKR
notes: as for B4
Kd(wt)/Kd(mut) (VEGF(8-109) [1]): 0.6 fold
